Source: patent EP2265113B1

Experiments:
[1] = target: H-ferritin receptors (binding sites) on bovine retinal endothelial cells (BREC cell homogenate); assay: saturation binding of 125I-H-ferritin to BREC homogenate, one-site global fit
[2] = target: H-ferritin receptors (binding sites) on rat brain microvasculature (isolated microvessels); assay: saturation binding of 125I-H-ferritin to rat brain microvessels, one-site global fit
[3] = target: H-ferritin receptors (binding sites) on bovine retinal endothelial cells (BREC cell homogenate); assay: homologous competition: unlabelled H-ferritin against 0.4 nM 125I-H-ferritin on BREC homogenate, one-site competition fit

Bmax (fmol/mg protein) [1]: 466
Kd [1]: 2.7 nM
Bmax (fmol/mg protein) [2]: 573
Kd [2]: 7.9 nM
Kd [3]: 2 nM
Substance: recombinant human H-ferritin (His tagged, expressed in E. coli, nickel column purified) (from UniProt P02794 1-183) (ligand)
